From PMC3605678 (The Journal of Biological Chemistry, 2013)
No end group written: not given here.

T1: MBP fusion of MKK5(PB1-D) (construct E, 16–130) (human, UniProt Q13163 16-130)
T1 sequence: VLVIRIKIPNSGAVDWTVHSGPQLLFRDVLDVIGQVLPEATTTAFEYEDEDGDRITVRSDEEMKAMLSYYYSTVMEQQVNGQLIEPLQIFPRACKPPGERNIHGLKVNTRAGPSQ

B1: pepMKK5 (peptide with the linear D-motif of MKK5) (peptide)
peptide: ASKPPGERNIHGLKVNTRA
B2: GST-MEKK3(PB1) (MEKK3 PB1 domain, residues 42–126) (domain or fragment)
chain: QSDVRIKFEHNGERRIIAFSRPVKYEDVEHKVTTVFGQPLDLHYMNNELSILLKNQDDLDKAIDILDRSSSMKSLRILLLSQDRN
B3: ERK5 MAPK construct containing the N-terminal region of ERK5-(1–431) (domain or fragment)
chain: MAEPLKEEDGEDGSAEPPGPVKAEPAHTAASVAAKNLALLKARSFDVTFDVGDEYEIIETIGNGAYGVVSSARRRLTGQQVAIKKIPNAFDVVTNAKRTLRELKILKHFKHDNIIAIKDILRPTVPYGEFKSVYVVLDLMESDLHQIIHSSQPLTLEHVRYFLYQLLRGLKYMHSAQVIHRDLKPSNLLVNENCELKIGDFGMARGLCTSPAEHQYFMTEYVATRWYRAPELMLSLHEYTQAIDLWSVGCIFGEMLARRQLFPGKNYVHQLQLIMMVLGTPSPAVIQAVGAERVRAYIQSLPPRQPVPWETVYPGADRQALSLLGRMLRFEPSARISAAAALRHPFLAKYHDPDDEPDCAPPFDFAFDREALTRERIKEAIVAEIEDFHARREGIRQQIRFQPSLQPVASEPGCPDVEMPSPWAPSGDCAM
B4: pepMEF2 (labeled MEF2A D-motif peptide) (peptide)
peptide: tetramethylrhodamin-SRKPDLRVVIPPS
B5: MBP fusion of MKK5 construct B (113–448) (domain or fragment, human, UniProt Q13163 113-448, looked up)
chain: GERNIHGLKVNTRAGPSQHSSPAVSDSLPSNSLKKSSAELKKILANGQMNEQDIRYRDTLGHGNGGTVYKAYHVPSGKILAVKVILLDITLELQKQIMSELEILYKCDSSYIIGFYGAFFVENRISICTEFMDGGSLDVYRKMPEHVLGRIAVAVVKGLTYLWSLKILHRDVKPSNMLVNTRGQVKLCDFGVSTQLVNSIAKTYVGTNAYMAPERISGEQYGIHSDVWSLGISFMELALGRFPYPQIQKNQGSLMPLQLLQCIVDEDSPVLPVGEFSEPFVHFITQCMRKQPKERPAPEELMGHPFIVQFNDGNAAVVSMWVCRALEERRSQQGPP

What was measured:
[1] = biological target: B3; assay: fluorescence polarisation
ERK2 = ERK2 (human, UniProt P28482 1-360); assay: fluorescence polarisation
[2] = biological target: T1, MBP fusion of MKK5(PB1-D) (construct E, …); assay: pull-down
[3] = biological target: Full-length MKK5 (MKK5_FL) (human, UniProt Q13163 1-448); assay: fluorescence polarisation
[4] = biological target: B3; assay: fluorescence polarisation; remark: listed apart in the source
[5] = biological target: B3; assay: pull-down

Chain of ERK2 (P28482 whole entry, the tested form may be a part): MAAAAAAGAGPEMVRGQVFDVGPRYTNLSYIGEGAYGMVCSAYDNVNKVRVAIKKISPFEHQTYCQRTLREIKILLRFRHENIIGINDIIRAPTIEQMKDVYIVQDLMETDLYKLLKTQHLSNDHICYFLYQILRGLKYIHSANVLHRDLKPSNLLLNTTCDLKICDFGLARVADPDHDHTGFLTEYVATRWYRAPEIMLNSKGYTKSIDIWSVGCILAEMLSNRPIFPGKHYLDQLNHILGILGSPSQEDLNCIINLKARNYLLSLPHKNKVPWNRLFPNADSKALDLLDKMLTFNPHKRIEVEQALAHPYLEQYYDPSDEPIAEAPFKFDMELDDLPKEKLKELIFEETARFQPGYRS

Binder: B1
- Kd [1]: 4.2 µM
- Kd (ERK2): > 100 µM

Binder: B2
- binding result [2]: binds

Binder: B3
- Kd [3]: < 0.1 µM

Binder: B4
- binding result [4]: binds

Binder: B5
- binding result [5]: binds
